From US6136598

Assays:
[1] = target: Mus dunni endogenous virus (MDEV) receptor on M. dunni cells (Mus dunni)
[2] = target: Mus dunni endogenous virus (MDEV) receptor on M. dunni cells (Mus dunni); remark: listed apart in the source
[3] = target: Mus dunni endogenous virus (MDEV) receptor on primary human dermal fibroblasts (human)
[4] = target: Mus dunni endogenous virus (MDEV) receptor on M. dunni cells (Mus dunni); remark: listed apart in the source

With “envelope protein of NZB xenotropic virus” the LAPSN titer, MDEV pseudotype on M. dunni cells infected with xenotropic virus (6 × 10^5 on uninfected cells) [1] was 400000 FFU/ml.
For “Mus dunni endogenous virus (MDEV) envelope protein”, the log10 of the fold interference, LAPSN(MDEV) on dunni/LN cells infected with MDEV (log10 of the fold interference) [2] was 5.5, the inhibition of transduction, LAPSN(MDEV) on HDF cells infected with MDEV [3] was 100 fold and the LAPSN titer, MDEV pseudotype on M. dunni cells infected with MDEV (6 × 10^5 on uninfected cells) [1] was 3 FFU/ml. The Fold Interference, LAPSN(PD223) titer on dunni/N2 against dunni/N2 + MDEV (fold interference) [4] was greater than 20000.
With “envelope protein of amphotropic MLV strain 4070A” the Fold Interference, LAPSN(PA317) titer on dunni/N2 against dunni/N2 + MDEV (fold interference) [4] was 1.
“envelope protein of amphotropic virus (AM-MLV)” showed an LAPSN titer, MDEV pseudotype on M. dunni cells infected with amphotropic virus (6 × 10^5 on uninfected cells) [1] of 400000 FFU/ml.
Substance “envelope protein of polytropic (MCF) virus strain 98D” has an LAPSN titer, MDEV pseudotype on M. dunni cells infected with polytropic virus (6 × 10^5 on uninfected cells) [1] of 400000 FFU/ml.
In the case of “Balb/c 3T3 IdU-induced retrovirus (BIRV) envelope”, the LAPSN titer, BIRV pseudotype on M. dunni cells infected with MDEV (8 × 10^4 on uninfected cells) [1] was 60000 FFU/ml.
